Data taken from paper doi:10.1101/2022.01.28.478199.
Where “and” joins values, the source holds several entries; their conditions need not be identical. Equal entries are not always repeated.

Target: Hsp78TR-6xHis (Hsp78 E216Q/E614Q Walker B mutant with a C-terminal 6x polyhistidine-tag) (S. cerevisiae) (UniProt P33416)
Experiment: native gel or EMSA

stoichiometry N: 3 and 6
Substance: Hsp78TR-6xHis (Hsp78 E216Q/E614Q Walker B mutant with a C-terminal 6x polyhistidine-tag) (from UniProt P33416 45-811) (natural protein)
